The series deals with the molecule itself. The series is described as follows: yeast two-hybrid two-by-two matrix, LacZ and HIS3 reporters.

The values below come from patent US20040229213A1 (INSTITUT PASTEUR, published 2004).

B1: HCV core protein, full length (strain H) (other)
chain: MSTNPKPQRKTKRNTNRRPQDVKFPGGGQIVGGVYLLPRRGPRLGVRATRKTSERSQPRGRRQPIPKARRPEGRTWAQPGYPWPLYGNEGCGWAGWLLSPRGSRPSWGPTDPRRRSRNLGKVIDTLTCGFADLMGYIPLVGAPLGGAARALAHGVRVLEDGVNYATGNLPGCSFSIFLLALLSCLTVPASA
notes: mature; also called capsid protein; full-length capsid
In the case of B1, the binding result is reported as “no binding”.
